Laboratory results reported in publication PMC5374410, “Identification of a Potent Allosteric Inhibitor of Human Protein Kinase CK2 by Bacterial Surface Display Library Screening” (Pharmaceuticals, 2017).

B1: recombinant human protein kinase CK2 holoenzyme coupled to fluorescein isothiocyanate (FITC) (complex)
chain 1: MSGPVPSRARVYTDVNTHRPREYWDYESHVVEWGNQDDYQLVRKLGRGKYSEVFEAINITNNEKVVVKILKPVKKKKIKREIKILENLRGGPNIITLADIVKDPVSRTPALVFEHVNNTDFKQLYQTLTDYDIRFYMYEILKALDYCHSMGIMHRDVKPHNVMIDHEHRKLRLIDWGLAEFYHPGQEYNVRVASRYFKGPELLVDYQMYDYSLDMWSLGCMLASMIFRKEPFFHGHDNYDQLVRIAKVLGTEDLYDYIDKYNIELDPRFNDILGRHSRKRWERFVHSENQHLVSPEALDFLDKLLRYDHQSRLTAREAMEHPYFYTVVKDQARMGSSSMPGGSTPVSSANMMSGISSVPTPSPLGPLAGSPVIAAANPLGMPVPAAAGAQQ
chain 2: not shown
modifications: FITC covalently coupled to the holoenzyme, sites not stated | FITC covalently coupled to the holoenzyme, sites not stated
notes: catalytic subunit CK2α of human protein kinase CK2; regulatory subunit CK2β of human protein kinase CK2; FITC-labelled in the flow cytometry; also called CK2-FITC; fluorophore coupled CK2; source: E. coli BL21(DE3), purified (protocol of Grankowski et al. with modifications), FITC labeling Kit (Calbiochem); copies: 2 + 2

Tests used:
[1] = target: T1, human αS1-casein (170 aa) displayed on E. coli UT5600(DE3) by autodisplay (plasmid pKP10) (human, UniProt P47710 16-185); experiment: flow cytometry on cells; E. coli UT5600(DE3) cells displaying the passenger by autodisplay incubated with fluorescein-coupled CK2 holoenzyme for 30 min at 37 °C in 50 mM Tris/HCl pH 7.4, 100 mM NaCl, 10 mM MgCl2, 1 mM DTT, 200 µM ATP; washed; excitation 488 nm, 527/30 nm filter; host strain without plasmid as control; conditions: one partner purified
T1 construct: human αS1-casein as autodisplay passenger, 510 nt, 170 aa as printed; Passenger between the cleaved signal peptide of the autotransporter precursor and the linker; also called full-length αS1-casein; not shown: AIDA-I autotransporter linker and β-barrel, C-terminal, kept
T1 sequence (looked up): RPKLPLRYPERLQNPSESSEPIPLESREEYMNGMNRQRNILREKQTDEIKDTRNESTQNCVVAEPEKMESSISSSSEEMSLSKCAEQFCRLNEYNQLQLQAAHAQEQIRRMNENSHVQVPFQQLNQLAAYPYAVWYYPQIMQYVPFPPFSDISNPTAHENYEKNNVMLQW

[2] = target: B1; experiment: cell-based or functional assay
[3] = target: human CK2α, catalytic subunit alone (unlabelled) (human, UniProt P68400 1-391); experiment: cell-based or functional assay
[4] = target: B1; experiment: cell-based or functional assay; remark: listed apart in the source

Binder | fold fluorescence intensity over control cells [1] [fold] | Ki, taken as equal to the IC50 of the CE kinase assay (non-competitive inhibition with α = 1) [2] [nM] | IC50 of inhibition of the kinase activity of the catalytic subunit CK2α alone, CE assay [3] [nM] | IC50 of inhibition of the kinase activity of (unlabelled) CK2 holoenzyme, CE assay with substrate peptide … [4] [nM]
B1 | 10 |  |  | 
DCRGLIVMIKLH [peptide B2 (free synthetic peptide)] |  | 800 | 800 | 800
